Reference: patent publication US20130022541A1

Tests used:
HLA-DR [1] = test: flow cytometry, permeabilized (cytoplasmic), TU118 cells + IFN-γ
HLA-DR [2] = test: flow cytometry, surface, U118 cells + IFN-γ
HLA-DR [3] = test: flow cytometry, surface, Moser cells + IFN-γ
HLA-DR [4] = test: flow cytometry, permeabilized (cytoplasmic), HT29 cells + IFN-γ
HLA-DR [5] = test: flow cytometry, surface, KMS11 cells
HLA-DR [6] = test: flow cytometry, surface, Aspc-1 cells
HLA-DR [7] = test: flow cytometry, surface, TU118 cells
HLA-DR [8] = test: flow cytometry, surface, U87 cells + IFN-γ
HLA-DR [9] = test: flow cytometry, permeabilized (cytoplasmic), Lovo cells + IFN-γ
HLA-DR [10] = test: flow cytometry, permeabilized (cytoplasmic), RL cells + IFN-γ
HLA-DR [11] = test: flow cytometry, surface, FSCCL cells + IFN-γ
HLA-DR [12] = test: flow cytometry, permeabilized (cytoplasmic), KMS11 cells
HLA-DR [13] = test: flow cytometry, surface, BxPC-3 cells
HLA-DR [14] = test: flow cytometry, surface, Aspc-1 cells + IFN-γ
HLA-DR [15] = test: flow cytometry, permeabilized (cytoplasmic), FSCCL cells
HLA-DR [16] = test: flow cytometry, permeabilized (cytoplasmic), RL cells
HLA-DR [17] = test: flow cytometry, surface, LS174T cells + IFN-γ
HLA-DR [18] = test: flow cytometry, surface, Lovo cells + IFN-γ
HLA-DR [19] = test: flow cytometry, permeabilized (cytoplasmic), LS174T cells
HLA-DR [20] = test: flow cytometry, permeabilized (cytoplasmic), HT29 cells
HLA-DR [21] = test: flow cytometry, permeabilized (cytoplasmic), Panc-1 cells + IFN-γ
HLA-DR [22] = test: flow cytometry, permeabilized (cytoplasmic), CAG cells + IFN-γ
HLA-DR [23] = test: flow cytometry, permeabilized (cytoplasmic), Aspc-1 cells + IFN-γ
HLA-DR [24] = test: flow cytometry, surface, FSCCL cells
HLA-DR [25] = test: flow cytometry, surface, U118 cells
HLA-DR [26] = test: flow cytometry, surface, HT29 cells
HLA-DR [27] = test: flow cytometry, permeabilized (cytoplasmic), Capan cells + IFN-γ
HLA-DR [28] = test: flow cytometry, permeabilized (cytoplasmic), U87 cells
HLA-DR [29] = test: flow cytometry, surface, Panc-1 cells + IFN-γ
HLA-DR [30] = test: flow cytometry, surface, Capan-1 cells
HLA-DR [31] = test: flow cytometry, permeabilized (cytoplasmic), Aspc-1 cells
HLA-DR [32] = test: flow cytometry, surface, KMS11 cells + IFN-γ
HLA-DR [33] = test: flow cytometry, permeabilized (cytoplasmic), U87 cells + IFN-γ
HLA-DR [34] = test: flow cytometry, surface, CAG cells
HLA-DR [35] = test: flow cytometry, permeabilized (cytoplasmic), LS174T cells + IFN-γ
HLA-DR [36] = test: flow cytometry, permeabilized (cytoplasmic), Lovo cells
HLA-DR [37] = test: flow cytometry, surface, Moser cells
HLA-DR [38] = test: flow cytometry, permeabilized (cytoplasmic), Moser cells + IFN-γ
HLA-DR [39] = test: flow cytometry, surface, BxPC-3 cells + IFN-γ
HLA-DR [40] = test: flow cytometry, surface, RL cells + IFN-γ
HLA-DR [41] = test: flow cytometry, permeabilized (cytoplasmic), Moser cells
HLA-DR [42] = test: flow cytometry, permeabilized (cytoplasmic), TU118 cells
HLA-DR [43] = test: flow cytometry, permeabilized (cytoplasmic), CAG cells
HLA-DR [44] = test: flow cytometry, surface, CAG cells + IFN-γ
HLA-DR [45] = test: flow cytometry, surface, Panc-1 cells
HLA-DR [46] = test: flow cytometry, permeabilized (cytoplasmic), Panc-1 cells
HLA-DR [47] = test: flow cytometry, surface, TU118 cells + IFN-γ
HLA-DR [48] = test: flow cytometry, surface, RL cells
HLA-DR [49] = test: flow cytometry, permeabilized (cytoplasmic), BxPC-3 cells + IFN-γ
HLA-DR [50] = test: flow cytometry, surface, Capan cells + IFN-γ
HLA-DR [51] = test: flow cytometry, permeabilized (cytoplasmic), KMS11 cells + IFN-γ
HLA-DR [52] = test: flow cytometry, surface, LS174T cells
HLA-DR [53] = test: flow cytometry, surface, U87 cells
HLA-DR [54] = test: flow cytometry, permeabilized (cytoplasmic), FSCCL cells + IFN-γ
HLA-DR [55] = test: flow cytometry, permeabilized (cytoplasmic), U118 cells
HLA-DR [56] = test: flow cytometry, permeabilized (cytoplasmic), Capan-1 cells
HLA-DR [57] = test: flow cytometry, surface, Lovo cells
HLA-DR [58] = test: flow cytometry, permeabilized (cytoplasmic), U118 cells + IFN-γ
HLA-DR [59] = test: flow cytometry, surface, HT29 cells + IFN-γ
HLA-DR [60] = test: flow cytometry, permeabilized (cytoplasmic), BxPC-3 cells

- flow cytometry fluorescence (HLA-DR [1]): 215
- flow cytometry fluorescence (HLA-DR [2]): 197
- flow cytometry fluorescence (HLA-DR [3]): 8.5
- flow cytometry fluorescence (HLA-DR [4]): 638
- flow cytometry fluorescence (HLA-DR [5]): 677
- flow cytometry fluorescence (HLA-DR [6]): 3.2
- flow cytometry fluorescence (HLA-DR [7]): 5.08
- flow cytometry fluorescence (HLA-DR [8]): 172
- flow cytometry fluorescence (HLA-DR [9]): 989
- flow cytometry fluorescence (HLA-DR [10]): 1180
- flow cytometry fluorescence (HLA-DR [11]): 1610
- flow cytometry fluorescence (HLA-DR [12]): 879
- flow cytometry fluorescence (HLA-DR [13]): 2.3
- flow cytometry fluorescence (HLA-DR [14]): 15.2
- flow cytometry fluorescence (HLA-DR [15]): 1470
- flow cytometry fluorescence (HLA-DR [16]): 1060
- flow cytometry fluorescence (HLA-DR [17]): 4.7
- flow cytometry fluorescence (HLA-DR [18]): 276
- flow cytometry fluorescence (HLA-DR [19]): 23.4
- flow cytometry fluorescence (HLA-DR [20]): 9.1
- flow cytometry fluorescence (HLA-DR [21]): 64.1
- flow cytometry fluorescence (HLA-DR [22]): 2420
- flow cytometry fluorescence (HLA-DR [23]): 73.6
- flow cytometry fluorescence (HLA-DR [24]): 1090
- flow cytometry fluorescence (HLA-DR [25]): 6.1
- flow cytometry fluorescence (HLA-DR [26]): 3.3
- flow cytometry fluorescence (HLA-DR [27]): 253
- flow cytometry fluorescence (HLA-DR [28]): 102
- flow cytometry fluorescence (HLA-DR [29]): 4.7
- flow cytometry fluorescence (HLA-DR [30]): 5.5
- flow cytometry fluorescence (HLA-DR [31]): 11
- flow cytometry fluorescence (HLA-DR [32]): 665
- flow cytometry fluorescence (HLA-DR [33]): 429
- flow cytometry fluorescence (HLA-DR [34]): 1930
- flow cytometry fluorescence (HLA-DR [35]): 42.3
- flow cytometry fluorescence (HLA-DR [36]): 32.5
- flow cytometry fluorescence (HLA-DR [37]): 4
- flow cytometry fluorescence (HLA-DR [38]): 40.5
- flow cytometry fluorescence (HLA-DR [39]): 43.8
- flow cytometry fluorescence (HLA-DR [40]): 862
- flow cytometry fluorescence (HLA-DR [41]): 18.2
- flow cytometry fluorescence (HLA-DR [42]): 23.6
- flow cytometry fluorescence (HLA-DR [43]): 2320
- flow cytometry fluorescence (HLA-DR [44]): 1810
- flow cytometry fluorescence (HLA-DR [45]): 4.3
- flow cytometry fluorescence (HLA-DR [46]): 22.7
- flow cytometry fluorescence (HLA-DR [47]): 93.5
- flow cytometry fluorescence (HLA-DR [48]): 750
- flow cytometry fluorescence (HLA-DR [49]): 130
- flow cytometry fluorescence (HLA-DR [50]): 66.2
- flow cytometry fluorescence (HLA-DR [51]): 927
- flow cytometry fluorescence (HLA-DR [52]): 5.3
- flow cytometry fluorescence (HLA-DR [53]): 41.9
- flow cytometry fluorescence (HLA-DR [54]): 2520
- flow cytometry fluorescence (HLA-DR [55]): 24.6
- flow cytometry fluorescence (HLA-DR [56]): 11.6
- flow cytometry fluorescence (HLA-DR [57]): 7.3
- flow cytometry fluorescence (HLA-DR [58]): 352
- flow cytometry fluorescence (HLA-DR [59]): 298
- flow cytometry fluorescence (HLA-DR [60]): 14.2
B1: hL243γ4P (anti-HLA-DR) (antibody, from a related filing, V domains shown)
VH: QVQLQQSGSELKKPGASVKVSCKASGFTFTNYGMNWVKQAPGQGLKWMGWINTYTREPTYADDFKGRFAFSLDTSVSTAYLQISSLKADDTAVYFCARDITAVVPTGFDYWGQGSLVTVSS
VL: DIQLTQSPSSLSASVGDRVTITCRASENIYSNLAWYRQKPGKAPKLLVFAASNLADGVPSRFSGSGSGTDYTFTISSLQPEDIATYYCQHFWTTPWAFGGGTKLQIKR
